Results published in the nanobody polyreactivity screen of Harvey et al. (2022).

Test: yeast display, Sf9 membrane polyspecificity reagent, FACS + sequencing; frameworks hold sequencing errors
Method in brief: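 In a synthetic yeast display library (Saccharomyces cerevisiae BJ5465), nanobody expression was induced with galactose for 36–48 hours. FACS gates were set low and high (top ~1%) using anti-HA fluorescence for expression and streptavidin fluorescence for binding of the Sf9 membrane reagent. Each polyreactivity label is drawn from the gate of origin.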

Sequence	polyreactivity (PSR sort gate)
QLQLQESGGGLVQAGGSLRLSCAASAFIFARNYMGWYRQAPGKERELVAGIGVGASTNYADSVKGRFTISRDNAKNTVYLQMNSLEPEDTAVYYCAVGDTVLGYHYYWGQGTQVTVSN	low polyreactivity
QVQLVESGGGLVQAGGSLRLSCAASGRIFAYYAMGWYRQAPGKERELVAAINRSGVRTYYADSVKGRFTISRDNAKNTVYLQMNSLKPEDTAVYYCAAPGQHSWGQGTQVTVSS	high polyreactivity
QVQLVESGGGIVQAGGSLRLSCAASGFTFSRYTMGWFRPAPGQERELVAAINRRGGSTYYADSVKGRFTISRDNAKHTVYLQLNSVKPADTAVYYCAATYTVRSGNGIANDYWGQGTQVTVSS	high polyreactivity
QVQIVESGGGLVQAGGSLRLSCAASGSIFRSYAMGWYRQAPGKERELVAAITSSSGSTYYADSVKGRFTISRDNAKNTVYLQMNSLKPEDTAVYSCAAGSPRRYRYDYWGQGTQVTVSS	high polyreactivity
QVQLVESGGGLVQAGGSLRLSCAASGSTLVQYVMGWYRQAPGKERELVAAISGSGGSTYYADSVKGRFTISRDNAKNTVYLQMNSLKPEDTAVYYCAASRRSGYGYWGQGTQVTVSS	high polyreactivity
QVQLVESGGGLVQAGGSLRLSCAASGFTSAPYAMGWYRQAPGKERELVAAISSGDTTSYADSVKGRFTISRDNAKNTVYLQMNSLKPEDTAVYYCAAVYFNVIESYKTAGYDYWGQGTQVTVSS	low polyreactivity
QVQLVESGGGLVQAGGSLRLSCAASGYIFVWYDMGWYRHAPGKERELVAAITWSGGSTYADSVKGRFTISRDNAKNTVYLQMNSLIPEDTAVDYCNADNNLDVYVDYGFNYWGQGTQVTVSS	low polyreactivity
QVQLVESGGGLVQAGGSLRLSCAASGIIFARNAMGWYRQAPGKERELVATISRNGGRTYYADSVKGRFTISRDNAKNTVYLQMNSLKPEDTAVYYCAAGFYLRAVWMDYWGQGTQVTVSS	high polyreactivity
QVQLVESGGGLVQAGGSLRLSCAASGLTFNRYAMGCYRQAPGKEREFVAAISVRSGSTYYADSVKGRFTISRDNAKNTVYLQMNSLKPEDTAVYYCAAKIRKDYSIQGYDYWGQGTQVTVSS	high polyreactivity
QVKLVESGGGLVQAGGSHRLSCAASGSIFGDYVMGSYRQAPGKEMELVAAINRGGSTYYADSVKGRFTISRDNAKNTVYLQMNSLKPADTAVYYCAAGYPSWYYGYPYDSWGQGTQVTVSS	low polyreactivity
QVQLVESGGGLVQAGGSLRLSCAASGRTFGRYAMGGYRQAPGKERELVAAINSGGSTYYADSVKGRFTISRDNAKNTVYLQMNSLKPEDTAVYYCAADWYYWGFIFDYWGQGTQVTVSS	high polyreactivity
QVQLVESGGGLVQAGGSLRLSCAASGSTFPFYDMGWYRQAPGKERELVAAIRSGGSTYADSVKGRFTISRDNAKNTVYLQMNSLKPEDTAVYYCAKRCPSNRYSRYRVKYDYWGQGSQVTVSS	low polyreactivity
QVQLVESGGGLVQAGGSLRLSCAASGRIFTYNTMGWYRQAPGKERELVAAIRTGGSTNYADSVKGRFTISRDNAKNTVYLQMNSLKPEDTAVYYCNTVRHSSSVYWYDYWGQGTQVTVSS	low polyreactivity
QVQHVESGGGLVQAGGSLRLSCAASGRTFVNNAMGWYRQQPGKERELVAAITGSGGSTYYADSVKGRFTISRDNAKNTVYLLMNSLKPEDTAVYYCAKRLVGSRYLFDYWGQGTQVTVSS	low polyreactivity
QVQLVESGGGLVQAGGSLRLSCAASGSTFIQYAMGWYRQAPGKERELVATIRWIGGSTYYADSVKGRFTISRDNAKNTVYLQMNSLKPEDTAVYYCAAGYEYVENGVDWYEYDYWGQGTQVTVSS	low polyreactivity
QVQLQESGGGLVQAGGSLRMSCAASGNIFDADIMGWSRQAPGKERELVASNTDGRRTNYADSVKGRYTISRDSEKNTVYLQMNSLKAEDTAEYYCAAIAYPVVPTSFDYDCDYFHWGQGTQVTVSS	high polyreactivity
QVQLVESGGGLVQAGGSLRLSCAASGSTFGPYTMGWYRQAPGKERELVATISSGGSTYYADSVKGRFTISRDNAKNTVYLQMNSLKPEDTAVYYCAARYWSIYDYWGQGTQVTVSS	low polyreactivity
QVQLVESGGGLVQAGGSLRLSCAASGITFVSYGMGWYRQAPGKERELVAAISSGGRTYADSVKGRFTISRDNAKNTVYLQMNSLKPEDTAVYYCNARDYASGTEGDYWGQGTLVTVSS	low polyreactivity
QVQLVESGGGLVQAGGSLRLSCAASGSIFGVNAMGWYRQAPGKERELVASITGGDSTNYADSEKGRFTISRDNAKNTVYLQMNSLKPEDTAVYYCAKDHYYRYEEGDYWGQGTQVTVSS	low polyreactivity
QVQLVESGGGLVQAGGSLRLSCAASGSIFEVNAMGWYRQAPGKERELVAAISCSGGSTYYADSVKGRFTISRDNAKNTVYLQMNSLKPEDTAVYYCAARPAGYSGRKLYYWGQGTQVTVSS	low polyreactivity
QVQLVESGGGLVQAGGSLRLSCAASGRTFQEYAMGWYRQAPGKERELVADISDGGSTNYADSVKGRFTISRDNAKNTVYLQMYRLKPEDTAVYYCAADQYHGVGINFRSDYDYWGQGTQVTVSS	low polyreactivity
QVQLVESGGGLVQAGGSLRLSCAASGSIFVDYTMGWYLQAPGKERELVARITSGGSTYYADSVKGLFTISRDNAKNTVYLQMIRLNPEDTAVYYCAARPYYRYRNSWREQYYYWGQGTQVSVSS	high polyreactivity

Sequence	polyreactivity (PSR sort gate)
QVQLGESGGGLVQAGGSLRLSCAASGRIFPWNTMGWYRQAPGKERELVAGITSGGSTNYADSVKGRFTISRDNAKNTVYLLMNCLKPEATAVYYCAARGYYWYISGVYEYEYWGQGTQVTLSS	low polyreactivity
QVQLVESAGGLVQAGGSLRLSCAASGIISRWYAMGWYRQAPGKERELVAAITRGGNTYYADSVKGRFTISRDNAKNTVYLQMNSLKPEDTAVYYCAARTPSRYLYFEYDYWGQGTQVTVSS	low polyreactivity
QVQLVESGGGLVQAGGSLRLSCAASVRIFEVYAMGWYRQAPGKERELVAAISSGGGSTYYADSVKGRFTISRDNAKNTVFLQMISLKPEDTAVYYCAADEVTKKNSFPRIMDYWGQGTQVTVSS	high polyreactivity
QVQLVESGGGLVQAGGSLRLSCAASGSTFTVYAMGWYRQAPGKERELVAAISSSTGSTYYADSVKGRFTISRDNAKNTVYLQMNSLKPEDTAVYYCAADVYQVTTSSYTEFEYWGQGTQVTVSS	low polyreactivity
QVQLVESGGGLVQAGGSLRLSCAAYGRIFTINAMGWYRQAPGKERELVASIRSTGGSTYYADSVKGRFTISRDNAKNTVYLQMNSLKPEDTAVYYCAADGGVAWGYGYWGQGTQVTVSS	low polyreactivity
QVQLVESGGGLVQAGGSLRLSGAASGSTFIINAMGWSSQAPGKELELVAAISGRGTRTYYADSVKGRFTISRDNAKNTVYLQMNSLNPEDTAVYSCAALDTAGPYNTLDIYDHWGQGTQVTVSS	high polyreactivity
QVQLVESGGGLVQAGGSLRLSCAASGRIFVYYPMGWYRQAPGIERELVAAINAGGSTNYADSVKGRFTISRDNAKNTVYLQMNSLKPEDTAVYYCAAVRRSRYSYRGYYWGQGTQVTVSS	high polyreactivity
QVQLVESGGGLVQAGGSLRLSCAASGSIFINNAMGWYRQAPGKERELVAAISSSGTTYYADSVKGRFTISRDNAKNSVYLQMNSLKPEDTAVYYCNARYSLHSYYCFIYDSWGQGTKVTVSS	low polyreactivity
QVQLEESGGGLVQAGGSLRLSCAASGNTFTEYAMGWYRPAPGKEWELVASITGSGGSTYADSVKGRFTISRDNAKNSVYLQMNSLIAEDTAVYYCAKDTRYEYVGSEYGYWGQGTQVTVSS	low polyreactivity
QVQLVESGGGLVQAGGSLRLSCAASGSTFPAYAMGWYRQAPGKERELVAGISSGGRTYYADSVKGRFTISRDNAKNTVYLQMNSLKPEDTWVYYCAAFRFYWQRPERYYYWGQGTQVTVSS	high polyreactivity
QVQLVESGGGLVQAGGSLRLSCAASGRTFYGYAMGWYRQAPGKERELVASIRQSAGRTYYADSVKGRFTISRDNAKNTVYLQMNSLKPEDTAVYYCAASIFLRSFYQQGNYWGQGTQVTVSS	high polyreactivity
QVQLVESGGGLVQAGGSLRLSCAASGSTFYRYAMGWYRQAPGKERELVAAISSSGGSTYYADSVKGRFTISRDNAKNTVYLQMNSLKPEDTAVYYCNAAYRVRRFDYWGQGTQVTVSS	low polyreactivity
QVHLVASGGGLVQAGGSLRLRCAASGFTIDTYAKGWYRQAPGKERDLVAGISWSGGSTYYADSVKGRFTISRDNAKNTVYLQRNSLNPEDTAVYYCAADYAGYPGRTRQRPGYDYWGQGTQVTVSS	low polyreactivity
QVQLVETGGGLVQAGGSLRLSCAASGSTFESYAMGWYRQAPGKERELVASISRCGGTTFYADSVKVRFTISRDNAKNTVYLQMNSLKPEDTEVYYCAAKRRRLGGDYWGQGTQVTVSS	high polyreactivity
QVQLVESGGGIVQAGGSLRLSCAASGFICGHYTMGWYRQAPGKERELVAAITTGGRTYYADSVKGRFTISRDNGKNTVYLQMISLKPEDTAVYYCAARGYIWGQGTPVTVSS	high polyreactivity
QVQLVESGGGLVQAGVSLRLSCAASGGTFLVSAKGWYRQAPGKERQMVAAISVSGGSTYYADSVKGRFTISRDNAKNTVYLQMNSLKPEDTAVYYCAATYSHPFHTYVLRFFAYYYWGQGTQVTVSS	high polyreactivity
QVQLVESGGGLVQAGGSLRLSCAASGRIFYTNAMGWYRQAPGKERELVAGITGSGDSTYYADSVKGRFTISRDNAKNTVYLQMNSLKPEDTAVYYCAARWRYVLMDYWGQGTQVTVSS	low polyreactivity
QVQLVESGGGLVQAGGSLRLSCAASGFTFSYYAMGWYRQAPGKERELVARISFSGTRTYYADSVKGRFTISRDNAKNTVYLEMNSLKPEDTAVYYCAARFGYVGITARYDYWGQGTQVTVSS	high polyreactivity
QVHLVESGGGLVQAGGSLRLSCAASGYIFGYYAMGWYRQAPGKERELVAAISQGGGDTYYADSVKGRFTISRDNAKYTVYLQMNSLKPEDTAVYYCAADYEQSYVLTGTFKYDYWGQGTQVTVSS	low polyreactivity
QVQLVESGGGLVQAGGSLRLSCAASGRPFPFNAMGWSRQAPGKDRELVAAISGRGGSTYYADSVKGRFTISRDNATNTGSLQRNSQKPEDTAVDYCAARLPWSYYRTQGYNSWGQGTQGTVSS	high polyreactivity
QVQLVESGVGLVQAGGSLRLSCAASGSIFFKYAMGWYRQAPGKERELVAGITSTGRTYYADSVKGRFTISRDNAKNTVYLQMNSLKPEDTAVYYCNARTLPTYYRRYDYWGQGTQVTVSS	high polyreactivity
